The source of these data is US20200109446A1.

In data set [1] the target is Cascade lacking the Cse1 subunit (T. fusca). Briefly: EMSA, target DNA with a changed PAM and a mismatch at position +1.
The target is the same in data set [2]. Nature of the data set: EMSA, target DNA with a mismatch to the crRNA at position +1. Background: A gel shift assay detects complexes by their altered migration in electrophoresis.
For data set [3], the system named is T. fusca Type I-E CRISPR-Cas (Cascade) effector complex.

On to free Cse1 (T. fusca), for which the percent of Cascade complexes converted to the faster-migrating species (Cascade lacking Cse1) in data set [1] stood at 100%; in data set [2], 80%. Consider T. fusca Cas3, for which, in data set [3], the Cas3 nuclease activity result is “impaired Cas3 recruitment also reduced Cas3 nuclease activity when ATP and Co^+2 were added to the reaction mixtures”.
